Measured values from patent US20130231277A1 (NEW YORK UNIVERSITY, published 2013).

Target: T1, ectodomain of murine αKlotho (A35 to K982 of SEQ ID NO: 231) with a C-terminal FLAG tag (murine, UniProt O35082 35-982)
T1 construct: Purified from culture media of a HEK293 cell line; also called αKlotho ectodomain; not shown: C-terminal FLAG tag
T1 sequence: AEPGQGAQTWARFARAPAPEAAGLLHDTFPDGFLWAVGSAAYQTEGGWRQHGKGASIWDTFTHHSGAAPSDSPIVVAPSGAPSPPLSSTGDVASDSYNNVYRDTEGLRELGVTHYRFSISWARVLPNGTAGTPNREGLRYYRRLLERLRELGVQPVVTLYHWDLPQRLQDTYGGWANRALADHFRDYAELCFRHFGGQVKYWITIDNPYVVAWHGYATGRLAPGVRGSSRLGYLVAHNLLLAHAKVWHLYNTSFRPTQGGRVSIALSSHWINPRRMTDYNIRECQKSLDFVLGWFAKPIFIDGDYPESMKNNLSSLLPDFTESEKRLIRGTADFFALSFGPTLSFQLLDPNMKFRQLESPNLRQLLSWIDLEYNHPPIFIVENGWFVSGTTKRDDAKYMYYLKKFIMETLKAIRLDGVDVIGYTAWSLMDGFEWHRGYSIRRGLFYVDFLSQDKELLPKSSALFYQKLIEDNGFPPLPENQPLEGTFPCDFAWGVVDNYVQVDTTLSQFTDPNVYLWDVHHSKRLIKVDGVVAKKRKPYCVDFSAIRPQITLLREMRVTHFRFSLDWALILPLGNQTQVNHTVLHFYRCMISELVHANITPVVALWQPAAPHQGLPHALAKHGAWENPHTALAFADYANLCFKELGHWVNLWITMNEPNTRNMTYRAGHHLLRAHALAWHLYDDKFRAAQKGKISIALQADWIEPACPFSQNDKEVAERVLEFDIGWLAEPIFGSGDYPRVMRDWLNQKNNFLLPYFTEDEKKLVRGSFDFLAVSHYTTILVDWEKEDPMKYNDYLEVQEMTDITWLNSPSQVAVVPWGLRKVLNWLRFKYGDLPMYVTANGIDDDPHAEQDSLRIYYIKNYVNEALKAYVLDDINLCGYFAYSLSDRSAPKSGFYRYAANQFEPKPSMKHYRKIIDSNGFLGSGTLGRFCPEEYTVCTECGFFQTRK
Assay: SPR; FGF21 immobilized, increasing concentrations of αKlotho ectodomain passed over the chip (FIG. 4E)
Protocol: SPR experiments were performed on a Biacore 2000 instrument (Biacore AB), and all the protein-protein and protein-peptide interactions were studied at 25° C. in HBS-EP buffer (10 mM HEPES-NaOH, pH 7.4, 150 mM NaCl, 3 mM EDTA, 0.005% (v/v) polysorbate 20). Proteins were immobilized by amine coupling on flow channels of research grade CM5 chips (Biacore AB). Proteins were injected over a CM5 chip at a flow rate of 50 μl min⁻¹, and at the end of each protein injection (180 s), HBS-EP buffer (50 μl min⁻¹) was flowed over the chip to monitor dissociation for 180 s. In experiments where βKlotho binding to FGFR was analyzed, the chip surface was then regenerated by injecting 50 μl of 2.0 M NaCl in 10 mM sodium/potassium phosphate, pH 6.5. In experiments where α/βKlotho binding to FGF19/21/23 or binding of the FGFR1c-βKlotho complex to FGF21 was studied, 2.0 M NaCl in 10 mM sodium acetate, pH 4.5 was used for chip regeneration. To control for nonspecific binding in experiments where the ectodomain of αKlotho or βKlotho was immobilized on the chip, β-glucuronidase was coupled to the control flow channel of the chip (˜43-68 fmol/mm²). […] For each protein injection over a chip onto which αKlotho or βKlotho had been immobilized, the nonspecific responses from the β-glucuronidase control flow channel were subtracted from the responses recorded for the α/βKlotho flow channel.

binding result: no binding
B1: human FGF21, secreted bioactive form (H29 to S209 of SEQ ID NO: 100) (ligand)
chain: HPIPDSSPLLQFGGQVRQRYLYTDDAQQTEAHLEIREDGTVGGAADQSPESLLQLKALKPGVIQILGVKTSRFLCQRPDGALYGSLHFDPEACSFRELLLEDGYNVYQSEAHGLPLHLPGNKSPHRDPAPRGPARFLPLPGLPPALPEPPGILAPQPPDVGSSDPLSMVGPSQGRSPSYAS
notes: Used both immobilized on the SPR chip and in solution; also called wild-type FGF21; native FGF21
